According to publication PMC7418559 (2020):

Molecular target: CK2β 1-193 (Homo sapiens, UniProt P67870)
Test: microscale thermophoresis

Sequence of CK2β 1-193 (P67870 1-193): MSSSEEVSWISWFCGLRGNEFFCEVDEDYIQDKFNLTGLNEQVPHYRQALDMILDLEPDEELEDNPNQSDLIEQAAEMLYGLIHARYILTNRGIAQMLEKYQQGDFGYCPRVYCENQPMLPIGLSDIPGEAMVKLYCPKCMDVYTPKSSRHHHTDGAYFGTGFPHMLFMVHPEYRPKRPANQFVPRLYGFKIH

B1: CK2α 1-335 (protein)
chain: MSGPVPSRARVYTDVNTHRPREYWDYESHVVEWGNQDDYQLVRKLGRGKYSEVFEAINITNNEKVVVKILKPVKKKKIKREIKILENLRGGPNIITLADIVKDPVSRTPALVFEHVNNTDFKQLYQTLTDYDIRFYMYEILKALDYCHSMGIMHRDVKPHNVMIDHEHRKLRLIDWGLAEFYHPGQEYNVRVASRYFKGPELLVDYQMYDYSLDMWSLGCMLASMIFRKEPFFHGHDNYDQLVRIAKVLGTEDLYDYIDKYNIELDPRFNDILGRHSRKRWERFVHSENQHLVSPEALDFLDKLLRYDHQSRLTAREAMEHPYFYTVVKDQARMG
modifications: CK2β fluorescently labelled (RED-NHS)
Work on B1 yielded a Kd of 12 nM.
